Reference: patent publication US20240059799A1 (Pfizer, published 2024)
Blank lines part the entries; values can stand above or below the binder they belong to.

How the values were obtained:
recombinant human TL1A [1] = biological target: T1, recombinant human TL1A (human, UniProt O95150 71-251); experiment: cell-based or functional assay
T1 chain: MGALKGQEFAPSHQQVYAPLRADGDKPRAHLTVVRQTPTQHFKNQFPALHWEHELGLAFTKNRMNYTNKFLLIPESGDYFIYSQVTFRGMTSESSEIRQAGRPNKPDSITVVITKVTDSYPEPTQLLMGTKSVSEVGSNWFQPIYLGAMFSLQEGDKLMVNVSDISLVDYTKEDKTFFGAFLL

bovine serum albumin [2] = biological target: T2, bovine serum albumin (bovine, UniProt P02769 25-607); experiment: direct binding ELISA on coated BSA
T2 construct: also called BSA
T2 sequence (P02769 25-607 limits assumed): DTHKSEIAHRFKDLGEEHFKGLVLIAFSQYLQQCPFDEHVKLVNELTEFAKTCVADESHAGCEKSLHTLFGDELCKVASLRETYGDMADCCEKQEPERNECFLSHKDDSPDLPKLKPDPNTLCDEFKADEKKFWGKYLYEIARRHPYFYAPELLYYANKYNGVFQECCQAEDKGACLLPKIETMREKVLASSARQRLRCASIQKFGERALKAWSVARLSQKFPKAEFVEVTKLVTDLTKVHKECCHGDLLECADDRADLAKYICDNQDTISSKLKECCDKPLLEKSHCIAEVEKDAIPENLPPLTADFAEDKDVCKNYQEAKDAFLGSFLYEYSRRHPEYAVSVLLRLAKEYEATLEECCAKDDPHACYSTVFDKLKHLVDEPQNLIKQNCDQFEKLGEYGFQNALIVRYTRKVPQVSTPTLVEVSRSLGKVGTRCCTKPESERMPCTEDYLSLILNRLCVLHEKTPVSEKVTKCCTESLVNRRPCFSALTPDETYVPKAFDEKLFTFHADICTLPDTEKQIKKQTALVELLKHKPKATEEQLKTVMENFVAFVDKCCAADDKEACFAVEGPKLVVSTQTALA
Method: (§1) For the direct binding ELISA method to HSA or BSA, 96-well high binding plates (Corning, product number 3590) were coated with 1 μg/mL recombinant HSA or BSA in 100 μL/well in PBS overnight at 4° C. Plates were then blocked in PBS+0.02% casein solution and washed with PBS+0.05% Tween-20 following standard ELISA protocol. […] Plates were washed with PBS+0.05% Tween-20 following standard ELISA protocol, and goat anti-human IgG-Fc HRP conjugated secondary antibody (Pierce, #31413) diluted to 1:10,000 in assay buffer was added to plates and incubated for 1 hour at room temperature. Next, the plates were washed with PBS+0.05% Tween-20 following standard ELISA protocol, and then TMB substrate (BioFX Laboratories, catalog number TMBW-0100-01) was added to plates.
(§2) Reactions were stopped after approximately 5 minutes by adding 0.18 M ortho-phosphoric acid to each well and absorbance was read at 450 nm. […] For this method, samples diluted to 0.3 mg/mL were dispensed into the sample tray of a MicroCal VP-Capillary DSC with Autosampler (Malvern Instruments, Inc.), equilibrated for 5 minutes at 10° C. and then scanned up to 110° C. at a rate of 100° C. per/hour. A filtering period of 16 seconds was selected. Raw data was baseline corrected and the protein concentration was normalized. Origin Software 7.0 (Origin Lab Corporation, Northampton, MA) was used to fit the data to an MN2-State Model with an appropriate number of transitions.

human serum albumin [3] = biological target: T3, human serum albumin (human, UniProt P02768 25-609); experiment: direct binding ELISA on coated HSA
T3 construct: also called HSA
Method: as §1, §2

[4] = biological target: T4, recombinant cynomolgus monkey TL1A (cynomolgus monkey, UniProt O95150 72-251 (human entry)); experiment: SPR, antibody injected over captured biotinylated TL1A, 37° C.
T4 construct: biotinylated for SPR capture; also called cyno TL1A
T4 chain: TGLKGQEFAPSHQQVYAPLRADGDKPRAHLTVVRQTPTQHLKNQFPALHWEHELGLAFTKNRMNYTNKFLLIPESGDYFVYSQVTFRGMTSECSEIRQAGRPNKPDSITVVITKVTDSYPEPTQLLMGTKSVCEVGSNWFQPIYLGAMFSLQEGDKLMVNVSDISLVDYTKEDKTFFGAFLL
Method: (§3) For these analyses, kinetic assays were conducted at 37° C. using a collection rate of 10 Hz on a Biacore™ T200 instrument (GE Healthcare). […] The association phase was 90 seconds, and the dissociation phases were 1600 seconds over human, cynomolgus monkey and rabbit TL1A and 180 seconds for mouse and rat TL1A.
(§4) In order to determine binding to TL1A, kinetic assays were conducted at 37° C. using a collection rate of 10 Hz on a Biacore™ T200 instrument (GE Healthcare).

recombinant mouse TL1A [5] = biological target: T5, recombinant mouse TL1A (mouse, UniProt Q5UBV8 75-252); experiment: as above
T5 construct: biotinylated for SPR capture
T5 chain: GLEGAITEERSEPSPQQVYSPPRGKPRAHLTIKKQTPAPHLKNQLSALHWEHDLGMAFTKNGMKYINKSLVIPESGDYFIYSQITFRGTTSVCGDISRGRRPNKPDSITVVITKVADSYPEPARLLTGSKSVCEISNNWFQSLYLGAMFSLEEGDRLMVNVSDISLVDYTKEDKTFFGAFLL
Method: as §3, §4

recombinant human TL1A [6] = biological target: T6, recombinant human TL1A (human, UniProt O95150 71-251); experiment: cell-based or functional assay
T6 chain: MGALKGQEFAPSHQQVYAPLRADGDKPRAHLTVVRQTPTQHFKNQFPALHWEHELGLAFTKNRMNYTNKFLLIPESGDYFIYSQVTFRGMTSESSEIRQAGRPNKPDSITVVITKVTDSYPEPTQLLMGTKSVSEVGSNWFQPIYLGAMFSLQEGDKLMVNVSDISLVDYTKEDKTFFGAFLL

recombinant human TL1A [7] = biological target: T6, recombinant human TL1A; experiment: SPR, recombinant human TL1A
recombinant human TL1A [8] = biological target: T6, recombinant human TL1A; experiment: SPR 37 C, biotinylated TL1A captured, antibody injected
Method: as §3

[9] = biological target: T7, recombinant cynomolgus monkey TL1A (cynomolgus monkey, UniProt O95150 72-251 (human entry)); experiment: as above
T7 construct: biotinylated with Sulfo-NHS-biotin and captured for SPR
T7 chain: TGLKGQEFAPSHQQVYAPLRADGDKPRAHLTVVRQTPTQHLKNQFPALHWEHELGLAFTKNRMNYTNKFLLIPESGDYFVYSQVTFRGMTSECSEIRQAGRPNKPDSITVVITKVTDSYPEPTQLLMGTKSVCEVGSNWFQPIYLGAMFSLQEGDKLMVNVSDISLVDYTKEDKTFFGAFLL
Method: as §3

recombinant mouse TL1A [10] = biological target: T8, recombinant mouse TL1A (mouse, UniProt Q5UBV8 75-252); experiment: as above
T8 construct: biotinylated with Sulfo-NHS-biotin and captured for SPR
T8 chain: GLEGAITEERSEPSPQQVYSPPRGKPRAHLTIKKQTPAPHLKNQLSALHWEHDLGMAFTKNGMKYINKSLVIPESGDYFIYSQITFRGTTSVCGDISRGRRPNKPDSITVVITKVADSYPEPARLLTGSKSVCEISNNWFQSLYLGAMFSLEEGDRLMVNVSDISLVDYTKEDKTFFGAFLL
Method: as §3

recombinant rat TL1A [11] = biological target: T9, recombinant rat TL1A (rat, UniProt Q8K3Y7 76-252); experiment: as above
T9 construct: biotinylated with Sulfo-NHS-biotin and captured for SPR
T9 sequence: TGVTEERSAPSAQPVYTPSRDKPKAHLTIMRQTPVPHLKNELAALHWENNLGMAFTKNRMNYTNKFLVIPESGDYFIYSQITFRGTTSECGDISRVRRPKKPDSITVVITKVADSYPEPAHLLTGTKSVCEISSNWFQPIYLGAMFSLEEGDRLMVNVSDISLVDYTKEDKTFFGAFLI
Method: as §3

recombinant rat TL1A [12] = biological target: T9, recombinant rat TL1A; experiment: SPR 37 C, biotinylated TL1A captured, antibody injected; approximate KD
Method: as §3

bovine serum albumin [13] = biological target: T2, bovine serum albumin; experiment: direct binding ELISA on plate-coated BSA (1 ug/mL), anti-human IgG-Fc HRP, OD450
Method: as §1, §2

human serum albumin [14] = biological target: T3, human serum albumin; experiment: direct binding ELISA on plate-coated HSA (1 ug/mL), anti-human IgG-Fc HRP, OD450
Method: as §1, §2

NF-κB assay in TF-1 reporter cells, neutralization relative to TL1A-0002 (recombinant human TL1A [1]): ≤ 2 fold | binding result (bovine serum albumin [2]): no binding (tested: 0.5-1000 nM) | binding result (human serum albumin [3]): no binding (tested: 0.5-1000 nM) | fold higher affinity to human TL1A than to this TL1A [4]: ~2 fold | fold higher affinity to human TL1A than to this TL1A (recombinant mouse TL1A [5]): ~546 fold
B1: TL1A-0372 monovalent bispecific antibody (bispecific antibody, human IgG1, kappa)
heavy 1: QVQLVQSGAEVKKPGASVKVSCKASGYDYTYYGISWVRQAPGQGLEWMGWISTYNTGTHYAPSLQGRVTMTTDTSTSTAYMELRSLRSDDTAVYYCARESYYGSGAFRGGMDVWGQGTTVTVSSASTKGPSVFPLAPSSKSTSGGTAALGCLVKDYFPEPVTVSWNSGALTSGVHTFPAVLQSSGLYSLSSVVTVPSSSLGTQTYICNVNHKPSNTKVDKKVEPKSCDKTHTCPPCPAPEAAGAPSVFLFPPKPKDTLMISRTPEVTCVVVDVSHEDPEVKFNWYVDGVEVHNAKTKPREEQYNSTYRVVSVLTVLHQDWLNGKEYKCKVSNKALPAPIEKTISKAKGQPREPQVCTLPPSREEMTKNQVSLWCLVKGFYPSDIAVEWESNGQPENNYKTTPPVLDSDGSFFLYSKLTVDKSRWQQGNVFSCSVLHEALHSHYTQKSLSLSPGK
heavy 2: not shown
light: not shown
notes: KiH, LS

NFκB Bioassay IC50 (recombinant human TL1A [6]): 1.47 nM | Kd (recombinant human TL1A [7]): 0.286 nM | koff (recombinant human TL1A [7]): 4.98e-05 s⁻¹ | kon (recombinant human TL1A [7]): 174000 M⁻¹ s⁻¹ | Kd (recombinant human TL1A [8]): 0.54 nM | koff (recombinant human TL1A [8]): 6.21e-05 s⁻¹ | kon (recombinant human TL1A [8]): 114000 M⁻¹ s⁻¹ | Kd [9]: 1.27 nM | koff [9]: 0.000121 s⁻¹ | kon [9]: 96400 M⁻¹ s⁻¹ | Kd (recombinant mouse TL1A [10]): 295 nM | koff (recombinant mouse TL1A [10]): 0.00708 s⁻¹ | kon (recombinant mouse TL1A [10]): 24000 M⁻¹ s⁻¹ | koff (recombinant rat TL1A [11]): 0.0483 s⁻¹ | kon (recombinant rat TL1A [11]): 32200 M⁻¹ s⁻¹ | Kd (recombinant rat TL1A [12]): ~1510 nM | binding result (bovine serum albumin [13]): no binding (tested: 1e-6 M) | binding result (human serum albumin [14]): no binding (tested: 1e-6 M)
B2: TL1A-0372 (bispecific antibody, human IgG1, kappa)
heavy 1: QVQLVQSGAEVKKPGASVKVSCKASGYDYTYYGISWVRQAPGQGLEWMGWISTYNTGTHYAPSLQGRVTMTTDTSTSTAYMELRSLRSDDTAVYYCARESYYGSGAFRGGMDVWGQGTTVTVSSASTKGPSVFPLAPSSKSTSGGTAALGCLVKDYFPEPVTVSWNSGALTSGVHTFPAVLQSSGLYSLSSVVTVPSSSLGTQTYICNVNHKPSNTKVDKKVEPKSCDKTHTCPPCPAPEAAGAPSVFLFPPKPKDTLMISRTPEVTCVVVDVSHEDPEVKFNWYVDGVEVHNAKTKPREEQYNSTYRVVSVLTVLHQDWLNGKEYKCKVSNKALPAPIEKTISKAKGQPREPQVCTLPPSREEMTKNQVSLWCLVKGFYPSDIAVEWESNGQPENNYKTTPPVLDSDGSFFLYSKLTVDKSRWQQGNVFSCSVLHEALHSHYTQKSLSLSPGK
heavy 2: not shown
light: not shown
notes: monovalent bispecific (null-arm) antibody, IgG1 KiH, LS
